Test results taken from patent US20210163606A1 (ATYR PHARMA, published 2021).
Changes are numbered by the printed parent chain.

B1: aNRP2-11v7 (antibody, V domains shown)
VH: QVQLVQSGAEVKKPGASVKVSCKASGYTFTSFGISWVRQAPGQGLEWIGEIYPRSGNTYYNENFKGRATMTADKSTSTAYMELRSLRSDDTAVYYCARSSGYYGSTPFPYWGQGTLVTVSS
VL: DIQMTQSPSSLSASVGDRVTITCRASQDISNYLNWYQQKPGKAVKLLIYYTSRLHSGVPSRFSGSGSGTDYTFTISSLQPEDIATYYCQQGNTLPWTFGGGTKVEIK
notes: also called aNRP22-11v7
B2: aNRP2-10v13 (antibody, V domains shown)
VH: EVQLVQSGAEVKKPGATVKISCKVSGFNIKDYYVHWVQQAPGKGLEWMGRIDVHDDETKYAPKFQGRVTITADTSTDTAYMELSSLRSEDTAVYYCATPIYGAREAWFAYWGQGTLVTVSS
VL: DIQMTQSPSSLSASVGDRVTITCTASSSVSSSYLHWYQQKPGKAPKLLIYRTSNLASGVPSRFSGSGSGTDFTLTISSLQPEDFATYYCHQYYRSPPTFGGGTKVEIK
B3: aNRP2-14v9 (antibody, V domains shown)
VH: QLQLVESGGGVVQPGRSLRLSCTVSGFSLTSYGVHWVRQAPGKGLEWVGLIWSGGSTDYSPAFISRFTISEDNSKSTVYLQMNSLRAEDTAVYFCARNSYSSGYYAMDYWGQGTTVTVSS
VL: DIQLTQSPSFLSASVGDRVTITCKASQNVGHAVAWYQQKPGKAPKLLIYSASNRYTGVPSRFSGSGSGTEFTLTISSLQPEDFATYYCQQYSRYPPYTFGGGTKVEIK
B4: aNRP2-14v10 (antibody, V domains shown)
VH: B3 VH
VL: B3 VL with H31T, Y91R
B5: aNRP2-28v2/4 (antibody, V domains shown)
VH: QSVKESEGGLFKPTDTLTLTCTVSGFSLSTYSISWVRQAPGNGLEWIGIIGDAGGIIYATWAKSRSTITRSTALNTVTLKMTGLTAADTATYFCARDGTAFDIWGPGTLVTVSS
VL: AYDMTQTPASVEVVVGGTVTIKCQASQSIYSKLGWYQQKPGQPPKLLIYRASTLASGVSSRFKGSGSGTEYTLTISGVQCDDAATYYCQQDYSYINVDNIFGGGTEVVVK
notes: Mouse surrogate antibody; also called aNRP2-28v4

What was measured:
[1] = target: T1, human NRP2 variant 2 (hNRP2), untagged, on Expi293 cells (Human, UniProt O60462 23-931); assay: flow cytometry on Expi293-hNRP2 clonal cells
T1 construct: Transcript NM_003872 / NP_003863.2; also called Expi293-hNRP2 clonal cells; Human NRP2a (version 2)
T1 sequence: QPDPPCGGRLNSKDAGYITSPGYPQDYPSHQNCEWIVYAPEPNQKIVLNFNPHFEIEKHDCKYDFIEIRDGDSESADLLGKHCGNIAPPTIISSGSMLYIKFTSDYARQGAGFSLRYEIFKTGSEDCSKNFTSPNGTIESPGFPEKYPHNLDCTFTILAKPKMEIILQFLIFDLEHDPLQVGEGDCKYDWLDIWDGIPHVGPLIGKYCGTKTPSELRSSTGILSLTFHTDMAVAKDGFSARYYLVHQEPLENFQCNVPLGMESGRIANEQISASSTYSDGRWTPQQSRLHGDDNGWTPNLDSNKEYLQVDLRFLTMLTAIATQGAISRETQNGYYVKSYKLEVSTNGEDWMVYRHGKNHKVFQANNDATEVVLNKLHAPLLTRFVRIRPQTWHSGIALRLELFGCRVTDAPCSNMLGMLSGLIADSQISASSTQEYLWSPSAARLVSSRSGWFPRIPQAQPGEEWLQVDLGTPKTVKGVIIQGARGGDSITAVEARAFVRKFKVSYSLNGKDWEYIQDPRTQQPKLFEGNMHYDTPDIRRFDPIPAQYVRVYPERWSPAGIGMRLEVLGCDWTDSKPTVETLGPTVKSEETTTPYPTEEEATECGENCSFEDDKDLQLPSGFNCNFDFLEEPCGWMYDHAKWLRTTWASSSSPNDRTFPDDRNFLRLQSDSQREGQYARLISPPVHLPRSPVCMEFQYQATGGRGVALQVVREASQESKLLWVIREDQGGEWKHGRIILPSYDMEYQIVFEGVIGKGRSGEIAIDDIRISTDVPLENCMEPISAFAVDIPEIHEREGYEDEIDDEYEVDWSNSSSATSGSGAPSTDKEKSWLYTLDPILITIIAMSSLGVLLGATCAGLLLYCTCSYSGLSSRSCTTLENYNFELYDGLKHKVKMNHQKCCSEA
Protocol: Expi293-hNRP2 clonal cells were collected by centrifugation at 300 g for 5 minutes, and washed twice by DPBS (with calcium and magnesium, ThermoFisher Cat #14040133). Washed cells were added to a 96-well V-bottom plate (ThermoFisher Cat #1424572) at 100,000 cells/well in […] of DPBS added with Zombie Violet viability stain (Biolegend Cat #423114, diluted at 1:500). From this step on, cells were protected from light. Cells were kept at room temperature for 10 min and pelleted down at 300 g for 5 minutes at 4° C. Supernatants containing Zombie Violet were discarded, and without washing, 30 uL of antibodies diluted in the flow wash buffer (FWB, DPBS plus 2% FBS and 0.1% sodium azide to inhibit receptor internalization) were added to the cells. For anti-NRP2 antibody staining on Expi293-hNRP2 clonal cells, in-house human anti-NRP2 antibodies were tested at final concentrations of 0.006-100 nM at 4-fold dilutions. […] Binding was allowed to proceed on ice for 40-60 minutes. Cells were then pelleted at 300 g for 5 minutes at 4° C., supernatants removed, and cells washed twice by adding 150 μL of FWB and centrifuging the cells again in the same conditions. To detect a-NRP2 binding on the cell surface, Cy3-conjugated goat anti-human IgG Fc (Jackson ImmunoResearch Cat #109165098) was added to the cells at a final concentration of 3 μg/mL in 30 μL of FWB. After 30-40 minutes of incubation on ice, cells were pelleted at 300 g for 5 minutes at 4° C. and supernatants removed, and the cells were washed twice as described previously. Cells were then resuspended in FWB before acquisition on the Cytoflex. Gains were set based on staining controls. Cells were collected with typically more than 10,000 events. Cells were then analyzed on FlowJo analysis software by excluding dead cells and gating singlets. The statistical analysis was performed using GraphPad Prism. A four-parameter variable-slope curve was fitted to the data ([agonist] vs. response) using non-linear regression, and the EC₅₀ and r2 for each curve was determined.
The EC₅₀ of four anti-NRP2 antibodies directed against different domains of NRP2, were measured for binding to Expi293-hNRP2 clonal cells (see Table E1 and FIG. 3).

[2] = target: T2, cynomolgus monkey NRP2 on transfected Expi293 cells (cynomolgus monkey); assay: flow cytometry on Cyno NRP2-transfected Expi293 cells
T2 construct: whole, on cells; Plasmid bought from Origene; transient transfection; also called Cyno NRP2
Protocol: Binding of a-NRP2 to cynomolgus monkey NRP2-transfected Expi293 cells. Cynomolgus monkey (cyno) NRP2-transfected Expi293 cells were collected by centrifugation at 300 g for 5 minutes, and washed twice by DPBS (with calcium and magnesium, ThermoFisher Cat #14040133).
Washed cells were added to a 96-well V-bottom plate (ThermoFisher Cat #1424572) at 100,000 cells/well in 50 μL of DPBS added with Zombie Violet viability stain (Biolegend Cat #423114, diluted at 1:500). From this step on, cells were protected from light. Cells were kept at room temperature for 10 min and pelleted down at 300 g for 5 minutes at 4° C. Supernatants containing Zombie Violet were discarded, and without washing, 30 uL of antibodies diluted in the flow wash buffer (FWB, DPBS plus 2% FBS and 0.1% sodium azide to inhibit receptor internalization) were added to the cells. For a-NRP2 staining on Cyno NRP2-transfected Expi293 cells, in-house human anti-NRP2 antibodies were tested at final concentrations of 0.006-100 nM at 4-fold dilutions. For each test, NRP2 over-expression on the cell surface was validated by a-NRP2 staining (10 μg/mL R&D #AF567 a-NRP2) in separate wells. Binding was allowed to proceed on ice for 40-60 minutes. Cells were then pelleted at 300 g for 5 minutes at 4° C., supernatants removed, and cells washed twice by adding 150 μL of FWB and centrifuging the cells again in the same conditions. To detect a-NRP2 binding on the cell surface, Cy3-conjugated goat anti-human IgG Fc or AF647-conjugated donkey anti-goat IgG (Jackson ImmunoResearch Cat #109165098 & 705605147) was added to the cells at a final concentration of 3 μg/mL in 30 μL of FWB. After 30-40 minutes of incubation on ice, cells were pelleted at 300 g for 5 minutes at 4° C. and supernatants removed, and the cells were washed twice as described previously. […] Cells were then analyzed on FlowJo analysis software by excluding dead cells and gating singlets.
The EC₅₀ of three anti-NRP2 antibodies, each against a distinct domain of NRP2, were measured for binding to Cyno NRP2-transfected Expi293 cells (see Table E2 and FIG. 4).

[3] = target: T3, Cynomolgus NRP2 (aa23-854) with C-terminal Fc-tag (cynomolgus monkey); assay: SPR (ProteOn XPR36), antibody captured on anti-human Fab-kappa, cyno NRP2-Fc as analyte, bivalent analyte fit
T3 construct: range 23-854; sensorgrams fitted to a bivalent analyte model; also called Cynomolgus NRP2 antigen protein
Protocol: Anti-NRP2 antibody binding and affinity measurements. […] SPR experiments were conducted on a Bio-Rad ProteOn XPR36 Protein Interaction Array instrument. Biotinylated anti-human antibody (ThermoFisher Cat #7103302100) was immobilized on ProteOn NLC sensor chips. Anti-NRP2 antibodies were subsequently flowed over and captured by the anti-human antibody. Cynomolgus NRP2 antigen protein was flowed over the captured antibody at varying concentrations (150, 50, 16.67, 5.56, 1.85 nM). The sensor chip surface was regenerated between each analyte run to remove anti-NRP2 antibodies and NRP2 protein. Data was double referenced against a surface with no anti-NRP2 antibody captured (immobilized anti-human antibody only) and a buffer only blank. Affinity constants were derived by globally fitting sensograms to a bivalent analyte interaction model in the ProteOn manager software. For each anti-NRP2 antibody, data from the multiple NRP2 concentrations was fit as a single data set with dissociation rate constant (kd), association rate constant (kₐ) and Rₘₐₓ values as global parameters. The reported binding affinity is the equilibrium dissociation constant (KD) calculated from kd/kₐ. [0681] Running buffer: 50 mM HEPES, 300 mM NaCl, 5 mM CaCl₂, 0.005% Tween-20, pH 7.4 [0682] Immobilized antibody: CaptureSelect Human Fab-kappa Kinetics Biotin Conjugate, Thermo Fisher Cat #7103302100 [0683] Antigen: Cynomolgus NRP2 (aa23-854) with C-terminal Fc-tag [0684] Regeneration buffer: 10 mM glycine pH 2.0

[4] = target: T1, human NRP2 variant 2 (hNRP2), untagged, …; assay: flow cytometry as described for Table E1 (Expi293-hNRP2 cells); the cells for this surrogate are not said separately

Binder | EC50 [1] | EC50 [2] | Kd [3] | EC50 [4]
B1 | 6.3 nM | 5.7 nM | 12 nM | –
B2 | 0.65 nM | – | – | –
B3 | 1.2 nM | 2.8 nM | 0.017 nM | –
B4 | 47.5 nM | – | – | –
B5 | – | – | – | 1.58 nM
